According to the Human Domainome abundance scans (Beltran et al. 2025):

B1: Peroxisome proliferator-activated receptor delta, residues 71 to 145; numbered along this chain, Q03181 (parent)
chain: NMECRVCGDKASGFHYGVHACEGCKGFFRRTIRMKLEYEKCERSCKIQKKNRNKCQYCRFQKCLALGMSHNAIRF

Variants of: B1
Test: abundance fitness (aPCA) (normalised: wild type 0, dead -1); higher = more abundant; growth selection in yeast, the domain comes from the species named
Details: Homo sapiens

Abundance fitness of substitutions, site by site:
R59: I -0.837; A -0.459; P -0.903; T -0.218; M -0.023; V -0.472; N -0.704; W 0.204; L 0.098; E -0.933; S -0.928; Y 0.107; H -0.005; D -0.361; C -0.442; F -0.042; K -0.199; G -0.867
Q56: E 0.077; N -0.145; C 0.005; G 0.002; K -0.214; P -0.025; F -0.079; R -0.227; D 0.189; S 0.008; A 0.074; M -0.066; Y -0.116; L -0.031; T -0.321; W -0.341; I -0.599
K62: M -0.328; Y -0.441; H -0.522; V -0.569; I -0.245; P -0.824; E -0.447; C -0.543; A -0.056; D -0.671; F -0.418; W -0.646; G -0.661; L -0.318; Q -0.293; S -0.645; T -0.234; R -0.193
F60: Y -0.223; R -0.798; L -0.027; H -0.528; P -0.802; W -0.003; M -0.073; I -0.399; A -0.941; K -0.742; T -0.549; D -0.633; E -1.03; V -0.622; C -0.84; S -0.557; Q -1.04
C58: I -0.82; V -0.944; K -0.825; P -1.04; Q -0.848; F -1; G -0.822; D -0.719; W -0.723; L -0.769; T -0.957; R -0.771; Y -0.432; M -0.63; N -1.09; A -0.688; E -0.925
Q61: W -0.699; S -0.248; I -0.254; T -0.304; F -0.909; H -0.248; K -0.098; P -0.666; E -0.037; M -0.061; D -0.751; C -0.615; G -0.639; L -0.439; R -0.296; Y -0.227; V -0.243; N -0.359; A -0.069
K54: F 0.065; I -0.031; T -0.017; M 0.052; Q -0.012; V -0.037; D -0.02; P -0.037; A 0.009; W -0.036; S -0.079; Y 0.17; E 0.122; H -0.059; L -0.046
C55: W -0.858; T -0.393; Y -0.676; L -0.98; P -0.864; D -1.39; K -0.646; R -0.868; V -1.03; S -0.823; I -0.67; A -0.806; M -0.827; H -0.441; F -0.824; E -1.03; G -0.807
C63: I -0.669; D -0.635; A -0.585; F -0.403; K -0.791; Q -0.698; L -0.547; G -0.591; M -0.063; E -0.689
Y57: F -0.186; G -0.746; T -0.77; E -0.601; H -0.177; W -0.125; C -0.305; A -0.355; Q -0.862; S -0.35; R -0.671; D -0.335; V -0.675; K -0.507; M -0.867; N -0.946; L -0.765; I -0.919; P -0.961
